Among the data in doi:10.1101/647354 are Kd values, retold here.

The experiment addresses complement C5 (human) (UniProt P01031). The experiment is described as follows: SPR.

Sequence of complement C5 (human) (P01031 19-673, chain 1 of 2): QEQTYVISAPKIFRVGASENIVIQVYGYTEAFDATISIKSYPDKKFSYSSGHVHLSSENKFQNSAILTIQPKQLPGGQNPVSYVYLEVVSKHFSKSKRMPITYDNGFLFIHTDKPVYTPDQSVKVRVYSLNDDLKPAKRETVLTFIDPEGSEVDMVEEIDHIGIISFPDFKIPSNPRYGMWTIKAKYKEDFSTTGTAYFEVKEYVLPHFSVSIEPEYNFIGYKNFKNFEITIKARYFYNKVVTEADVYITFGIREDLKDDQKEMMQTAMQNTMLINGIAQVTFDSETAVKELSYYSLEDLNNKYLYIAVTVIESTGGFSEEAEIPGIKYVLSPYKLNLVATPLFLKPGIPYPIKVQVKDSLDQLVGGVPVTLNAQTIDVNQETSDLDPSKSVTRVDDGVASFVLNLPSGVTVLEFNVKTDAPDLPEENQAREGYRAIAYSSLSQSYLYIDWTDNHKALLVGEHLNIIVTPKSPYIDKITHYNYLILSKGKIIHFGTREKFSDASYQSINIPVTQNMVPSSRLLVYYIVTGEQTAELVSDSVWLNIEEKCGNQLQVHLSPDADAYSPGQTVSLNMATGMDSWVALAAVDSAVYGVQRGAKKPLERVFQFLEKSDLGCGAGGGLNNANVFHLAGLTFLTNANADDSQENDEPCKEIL
Sequence of complement C5 (human) (P01031 678-1676, chain 2 of 2): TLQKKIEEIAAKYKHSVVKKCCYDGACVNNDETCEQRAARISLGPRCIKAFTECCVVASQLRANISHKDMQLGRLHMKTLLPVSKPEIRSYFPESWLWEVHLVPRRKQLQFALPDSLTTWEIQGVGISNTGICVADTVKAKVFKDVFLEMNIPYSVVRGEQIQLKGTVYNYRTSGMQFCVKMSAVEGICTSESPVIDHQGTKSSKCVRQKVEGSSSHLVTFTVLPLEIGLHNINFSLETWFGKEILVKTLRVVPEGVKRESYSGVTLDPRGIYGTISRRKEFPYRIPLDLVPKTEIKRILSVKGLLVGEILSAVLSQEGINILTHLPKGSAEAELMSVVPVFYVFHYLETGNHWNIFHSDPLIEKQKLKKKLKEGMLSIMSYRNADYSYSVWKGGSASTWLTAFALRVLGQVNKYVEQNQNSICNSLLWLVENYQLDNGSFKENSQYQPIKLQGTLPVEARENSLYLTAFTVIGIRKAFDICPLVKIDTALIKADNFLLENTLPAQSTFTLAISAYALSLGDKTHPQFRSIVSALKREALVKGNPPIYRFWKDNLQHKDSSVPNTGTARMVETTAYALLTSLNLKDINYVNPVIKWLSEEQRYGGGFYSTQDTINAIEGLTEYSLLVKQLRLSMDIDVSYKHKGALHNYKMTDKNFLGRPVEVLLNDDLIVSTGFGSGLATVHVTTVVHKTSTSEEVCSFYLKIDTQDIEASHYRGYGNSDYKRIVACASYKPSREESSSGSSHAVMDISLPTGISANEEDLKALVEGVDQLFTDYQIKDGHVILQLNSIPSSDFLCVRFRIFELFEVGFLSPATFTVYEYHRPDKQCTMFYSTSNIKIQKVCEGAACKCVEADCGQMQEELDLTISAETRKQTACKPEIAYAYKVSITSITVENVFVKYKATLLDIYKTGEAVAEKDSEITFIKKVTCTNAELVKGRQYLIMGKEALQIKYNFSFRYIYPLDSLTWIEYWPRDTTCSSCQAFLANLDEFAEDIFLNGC

Turning to “CirpT1 (Complement Inhibitor from Rhipicephalus pulchellus of the Terminal Pathway 1) (natural protein)”, the Kd (usually the constant that tells how readily two partners part at equilibrium) amounted to 10 nM.
